The target in this assay is CD3 ζ SNID2 peptide (22-mer). In words: ITC; MicroCal iTC200; 20 mM HEPES (pH 8.0), 100 mM NaCl, 25 °C; typically Nef at 200 μM injected from the syringe to 20 μM CD3 ζ in the cell. (ITC needs no label: the signal is the heat of the interaction.)
Chain of CD3 ζ SNID2 peptide (22-mer) (P20963 other isoform, or with tags, fused parts or gaps): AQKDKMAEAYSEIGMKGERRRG

A word on the Kd: it is the equilibrium constant for the complex coming apart. A high value points to weaker binding. In turn, “SIV_(mac239) Nef 66–235 (SIV Nef-B) (from UniProt Q5QGG3 66-235) (domain or fragment)” displayed a Kd of 2.6 µM.

For the origin of these results see PMC5585231.
